Results from US20230174640A1 (VITAERIS, published 2023).

Target: T1, cynomolgus monkey IL-6 (cynomolgus monkey, UniProt P79341 28-212, limits assumed)
T1 sequence (looked up): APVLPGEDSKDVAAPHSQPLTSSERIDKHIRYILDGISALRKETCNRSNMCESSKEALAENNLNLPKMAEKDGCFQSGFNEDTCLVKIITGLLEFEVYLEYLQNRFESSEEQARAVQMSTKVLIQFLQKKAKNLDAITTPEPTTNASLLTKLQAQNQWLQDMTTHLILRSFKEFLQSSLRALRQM
Test: tissue cross-reactivity study, cynomolgus monkey tissues

binding result: binds
B1: clazakizumab (antibody, human IgG1, kappa, N297A, V domains shown)
VH: EVQLVESGGGLVQPGGSLRLSCAASGFSLSNYYVTWVRQAPGKGLEWVGIIYGSDETAYATSAIGRFTISRDNSKNTLYLQMNSLRAEDTAVYYCARDDSSDWDAKFNLWGQGTLVTVSS
VL: AIQMTQSPSSLSASVGDRVTITCQASQSINNELSWYQQKPGKAPKLLIYRASTLASGVPSRFSGSGSGTDFTLTISSLQPDDFATYYCQQGYSLRNIDNAFGGGTKVEIKR
notes: Humanized IgG1 monoclonal antibody; also called anti-IL-6 mAb clazakizumab
